Laboratory results: paper PMC9284966, “Construction of a T7 phage display nanobody library for bio-panning and identification of chicken dendritic cell-specific binding nanobodies” (Scientific Reports, 2022)

Columns and labels:
Assay in all cases: affinity purification with mass spectrometry; purified GST-VHH fusion protein as bait with lysate of immature chicken bone marrow DCs (day 6); in vitro pull-down, then HPLC-MS (done by ZoonBio Biotechnology)
Settings in all cases: one partner purified
[1] = biological target: T1, Glutathione S-transferase (Gallus gallus (SPF chick), UniProt Q08392)
T1 construct: Glutathione S-transferase, Gallus gallus; no gene name printed; source: endogenous, chicken bone marrow DC lysate

[2] = biological target: T2, Extracellular serine/threonine protein kinase FAM20C isoform X1 (Gallus gallus, UniProt A0A3G2WC03)
T2 construct: Extracellular serine/threonine protein kinase FAM20C isoform X1, Gallus gallus; no GN field printed, the symbol stands in the name; source: endogenous, chicken bone marrow DC lysate

[3] = biological target: T3, E3 ubiquitin-protein ligase TRIM71 (Gallus gallus (SPF chick), UniProt Q1PRL4)
T3 construct: E3 ubiquitin-protein ligase TRIM71, Gallus gallus, GN = TRIM71; source: endogenous, chicken bone marrow DC lysate

Calreticulin = biological target: T4, Calreticulin (Gallus gallus, UniProt A0A8V0X980)
T4 construct: Calreticulin, Gallus gallus, GN = CALR; source: endogenous, chicken bone marrow DC lysate

[4] = biological target: T5, SET domain-containing protein (Gallus gallus, UniProt A0A1D5PNH9)
T5 construct: SET domain-containing protein, Gallus gallus, GN = PRDM11; also called PRDM11; source: endogenous, chicken bone marrow DC lysate

[5] = biological target: T6, BTB domain-containing protein (Gallus gallus, UniProt A0A1D5NYT7)
T6 construct: BTB domain-containing protein, Gallus gallus, GN = KLHL26; also called KLHL26; source: endogenous, chicken bone marrow DC lysate

[6] = biological target: T7, Uncharacterized protein GN = ERCC5 (Gallus gallus (SPF chick), UniProt F1P266)
T7 construct: Uncharacterized protein, Gallus gallus, GN = ERCC5; source: endogenous, chicken bone marrow DC lysate

[7] = biological target: T8, Protein disulfide-isomerase (Gallus gallus (SPF chick), UniProt P09102)
T8 construct: Protein disulfide-isomerase, Gallus gallus, GN = P4HB; also called P4HB; source: endogenous, chicken bone marrow DC lysate

[8] = biological target: T9, Uncharacterized protein GN = LCP1 (Gallus gallus (SPF chick), UniProt Q5ZLW0)
T9 construct: Uncharacterized protein, Gallus gallus, GN = LCP1; source: endogenous, chicken bone marrow DC lysate

[9] = biological target: T10, Uncharacterized protein GN = ZBTB26 (Gallus gallus, UniProt A0A1D5NTV7)
T10 construct: Uncharacterized protein, Gallus gallus, GN = ZBTB26; source: endogenous, chicken bone marrow DC lysate

[10] = biological target: T11, zf-C2H2_7 domain-containing protein (Gallus gallus (SPF chick), UniProt A0A8V0Z1I9)
T11 construct: zf-C2H2_7 domain-containing protein, Gallus gallus, GN = PRR35; also called PRR35; source: endogenous, chicken bone marrow DC lysate

[11] = biological target: T12, UBX domain-containing protein 2B (Gallus gallus, UniProt A0A1D5P1A7)
T12 construct: UBX domain-containing protein 2B, Gallus gallus, GN = UBXN2B; also called UBXN2B; source: endogenous, chicken bone marrow DC lysate

[12] = biological target: T13, RING-type E3 ubiquitin transferase (Gallus gallus (endogenous, immature …, UniProt A0A8V0YPN2))
T13 construct: RING-type E3 ubiquitin transferase, Gallus gallus, GN = UHRF2; also called UHRF2; source: endogenous, chicken bone marrow DC lysate

[13] = biological target: T14, RanGAP1_C domain-containing protein (Gallus gallus, UniProt A0A8V0YG17)
T14 construct: RanGAP1_C domain-containing protein, Gallus gallus, GN = RANGAP1; source: endogenous, chicken bone marrow DC lysate

[14] = biological target: T15, Uncharacterized protein GN = GPC2 (Gallus gallus (SPF chick), UniProt A0A8V0ZXK1)
T15 construct: Uncharacterized protein, Gallus gallus, GN = GPC2; source: endogenous, chicken bone marrow DC lysate

[15] = biological target: T16, Collagen alpha-2(VI) chain (Gallus gallus (SPF chick), UniProt P15988)
T16 construct: Collagen alpha-2(VI) chain, Gallus gallus, GN = COL6A2; also called COL6A2; source: endogenous, chicken bone marrow DC lysate

[16] = biological target: T17, Voltage-dependent anion-selective channel protein 1 (Gallus gallus, UniProt E1BYN7)
T17 construct: Voltage-dependent anion-selective channel protein 1, Gallus gallus, GN = VDAC1; also called VDAC1; VDAC; source: endogenous, chicken bone marrow DC lysate

[17] = biological target: T18, Uncharacterized protein GN = RAP1A (Gallus gallus (SPF chick), UniProt F1NSA8)
T18 construct: Uncharacterized protein, Gallus gallus, GN = RAP1A; source: endogenous, chicken bone marrow DC lysate

Measured: binding result

T1 sequence (Q08392 whole entry): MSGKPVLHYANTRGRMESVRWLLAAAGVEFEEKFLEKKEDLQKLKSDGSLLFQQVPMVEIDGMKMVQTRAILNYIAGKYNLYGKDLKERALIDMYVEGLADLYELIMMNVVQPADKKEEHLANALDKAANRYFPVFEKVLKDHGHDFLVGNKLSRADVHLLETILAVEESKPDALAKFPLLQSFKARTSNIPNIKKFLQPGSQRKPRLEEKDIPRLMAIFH
T8 sequence (P09102 23-515): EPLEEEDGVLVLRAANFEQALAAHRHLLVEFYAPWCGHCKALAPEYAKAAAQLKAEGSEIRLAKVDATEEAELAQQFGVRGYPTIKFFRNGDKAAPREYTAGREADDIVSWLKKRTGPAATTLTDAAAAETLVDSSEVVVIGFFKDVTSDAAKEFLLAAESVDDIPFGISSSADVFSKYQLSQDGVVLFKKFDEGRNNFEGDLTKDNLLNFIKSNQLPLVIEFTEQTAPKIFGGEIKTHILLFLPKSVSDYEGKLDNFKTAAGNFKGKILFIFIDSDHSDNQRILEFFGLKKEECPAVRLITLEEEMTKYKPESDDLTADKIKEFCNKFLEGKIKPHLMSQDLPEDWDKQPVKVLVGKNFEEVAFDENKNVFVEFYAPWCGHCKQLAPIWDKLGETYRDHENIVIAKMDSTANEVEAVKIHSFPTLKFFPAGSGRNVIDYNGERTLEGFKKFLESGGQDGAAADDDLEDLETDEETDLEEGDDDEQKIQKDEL
T12 sequence (Q5ZLK2 whole entry, the tested form may be a part): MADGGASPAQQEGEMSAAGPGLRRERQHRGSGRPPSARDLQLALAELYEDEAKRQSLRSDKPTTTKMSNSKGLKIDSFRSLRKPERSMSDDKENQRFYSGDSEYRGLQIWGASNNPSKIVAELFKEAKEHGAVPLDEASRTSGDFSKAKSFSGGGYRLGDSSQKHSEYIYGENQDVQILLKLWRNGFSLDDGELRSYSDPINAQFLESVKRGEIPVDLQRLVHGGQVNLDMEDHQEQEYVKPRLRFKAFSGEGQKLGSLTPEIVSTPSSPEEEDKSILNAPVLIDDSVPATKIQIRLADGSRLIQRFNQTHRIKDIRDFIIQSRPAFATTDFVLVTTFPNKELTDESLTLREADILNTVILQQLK
T16 sequence (P15988 28-1022): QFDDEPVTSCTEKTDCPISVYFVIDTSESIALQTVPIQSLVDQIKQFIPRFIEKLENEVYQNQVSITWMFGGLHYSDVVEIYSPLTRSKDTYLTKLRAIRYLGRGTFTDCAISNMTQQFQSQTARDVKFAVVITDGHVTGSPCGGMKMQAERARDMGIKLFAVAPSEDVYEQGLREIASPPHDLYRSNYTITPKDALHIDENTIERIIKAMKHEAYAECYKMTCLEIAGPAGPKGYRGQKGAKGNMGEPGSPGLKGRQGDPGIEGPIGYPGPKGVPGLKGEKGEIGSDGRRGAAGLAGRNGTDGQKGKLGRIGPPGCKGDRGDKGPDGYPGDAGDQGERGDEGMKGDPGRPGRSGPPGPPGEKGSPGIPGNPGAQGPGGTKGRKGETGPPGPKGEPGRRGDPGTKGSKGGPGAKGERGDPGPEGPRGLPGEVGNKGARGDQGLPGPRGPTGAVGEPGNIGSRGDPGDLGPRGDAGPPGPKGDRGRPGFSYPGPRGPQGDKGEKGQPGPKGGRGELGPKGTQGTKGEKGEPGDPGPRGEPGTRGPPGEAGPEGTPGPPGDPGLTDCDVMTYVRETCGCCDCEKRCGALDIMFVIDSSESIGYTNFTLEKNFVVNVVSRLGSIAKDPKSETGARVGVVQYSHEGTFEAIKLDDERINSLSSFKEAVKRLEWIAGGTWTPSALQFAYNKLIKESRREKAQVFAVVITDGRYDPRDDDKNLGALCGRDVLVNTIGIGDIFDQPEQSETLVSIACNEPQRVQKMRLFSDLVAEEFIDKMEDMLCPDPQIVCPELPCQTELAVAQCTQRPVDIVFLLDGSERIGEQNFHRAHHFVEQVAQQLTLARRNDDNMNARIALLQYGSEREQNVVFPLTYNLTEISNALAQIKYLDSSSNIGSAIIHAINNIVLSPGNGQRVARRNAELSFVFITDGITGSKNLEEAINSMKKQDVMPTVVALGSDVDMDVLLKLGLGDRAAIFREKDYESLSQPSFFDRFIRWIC
T3 sequence (Q1PRL4 whole entry): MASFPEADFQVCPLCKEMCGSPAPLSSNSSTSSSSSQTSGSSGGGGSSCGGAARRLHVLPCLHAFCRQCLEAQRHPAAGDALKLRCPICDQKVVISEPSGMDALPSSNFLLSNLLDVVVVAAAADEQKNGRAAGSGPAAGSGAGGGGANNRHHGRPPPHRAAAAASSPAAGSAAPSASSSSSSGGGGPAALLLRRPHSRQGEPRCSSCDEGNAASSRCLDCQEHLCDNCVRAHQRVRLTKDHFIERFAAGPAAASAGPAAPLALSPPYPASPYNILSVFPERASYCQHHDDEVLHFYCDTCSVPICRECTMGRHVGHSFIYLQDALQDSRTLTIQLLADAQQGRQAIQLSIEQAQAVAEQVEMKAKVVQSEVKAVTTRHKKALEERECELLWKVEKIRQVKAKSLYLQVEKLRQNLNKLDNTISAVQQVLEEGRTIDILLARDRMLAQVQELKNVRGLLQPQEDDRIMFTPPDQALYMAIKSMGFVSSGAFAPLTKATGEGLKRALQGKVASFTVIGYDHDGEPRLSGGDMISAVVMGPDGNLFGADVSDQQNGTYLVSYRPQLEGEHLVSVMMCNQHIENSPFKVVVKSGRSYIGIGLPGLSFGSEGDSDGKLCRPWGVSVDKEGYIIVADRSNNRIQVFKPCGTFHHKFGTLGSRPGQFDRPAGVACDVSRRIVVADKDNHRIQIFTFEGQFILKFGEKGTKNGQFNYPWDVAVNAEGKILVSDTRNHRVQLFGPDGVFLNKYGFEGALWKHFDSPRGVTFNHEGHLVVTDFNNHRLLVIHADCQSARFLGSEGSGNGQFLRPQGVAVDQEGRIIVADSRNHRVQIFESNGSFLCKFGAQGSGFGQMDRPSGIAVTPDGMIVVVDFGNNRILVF
T7 sequence (F1P266 entry or part of it): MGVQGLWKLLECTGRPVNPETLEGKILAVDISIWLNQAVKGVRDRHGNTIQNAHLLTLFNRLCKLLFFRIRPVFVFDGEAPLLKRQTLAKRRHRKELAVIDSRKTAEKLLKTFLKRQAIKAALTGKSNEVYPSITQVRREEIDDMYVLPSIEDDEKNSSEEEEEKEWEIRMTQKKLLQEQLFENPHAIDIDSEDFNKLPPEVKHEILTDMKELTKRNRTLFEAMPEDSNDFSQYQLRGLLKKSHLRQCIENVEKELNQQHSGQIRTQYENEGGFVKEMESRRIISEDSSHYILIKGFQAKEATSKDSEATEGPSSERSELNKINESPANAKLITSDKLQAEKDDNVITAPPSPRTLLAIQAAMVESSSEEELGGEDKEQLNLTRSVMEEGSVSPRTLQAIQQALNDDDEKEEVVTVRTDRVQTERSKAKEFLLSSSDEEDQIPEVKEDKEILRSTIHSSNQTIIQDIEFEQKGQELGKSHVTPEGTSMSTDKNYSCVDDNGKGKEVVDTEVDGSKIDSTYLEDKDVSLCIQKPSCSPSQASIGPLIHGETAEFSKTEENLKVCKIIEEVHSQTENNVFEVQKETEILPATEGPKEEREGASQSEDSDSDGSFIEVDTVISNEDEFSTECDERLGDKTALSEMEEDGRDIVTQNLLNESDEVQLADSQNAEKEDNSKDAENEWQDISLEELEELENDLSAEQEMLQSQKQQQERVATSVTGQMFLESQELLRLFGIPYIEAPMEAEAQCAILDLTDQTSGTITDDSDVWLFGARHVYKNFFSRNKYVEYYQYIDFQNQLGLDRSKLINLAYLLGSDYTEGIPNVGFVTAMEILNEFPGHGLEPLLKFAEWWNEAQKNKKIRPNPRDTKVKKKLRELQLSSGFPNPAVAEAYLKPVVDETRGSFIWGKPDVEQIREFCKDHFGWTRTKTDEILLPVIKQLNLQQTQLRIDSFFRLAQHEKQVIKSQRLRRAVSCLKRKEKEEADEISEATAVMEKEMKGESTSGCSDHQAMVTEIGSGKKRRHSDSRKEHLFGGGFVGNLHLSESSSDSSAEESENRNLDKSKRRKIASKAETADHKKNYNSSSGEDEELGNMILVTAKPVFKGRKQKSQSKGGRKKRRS
T11 sequence (A0A8V0Z1I9 entry or part of it): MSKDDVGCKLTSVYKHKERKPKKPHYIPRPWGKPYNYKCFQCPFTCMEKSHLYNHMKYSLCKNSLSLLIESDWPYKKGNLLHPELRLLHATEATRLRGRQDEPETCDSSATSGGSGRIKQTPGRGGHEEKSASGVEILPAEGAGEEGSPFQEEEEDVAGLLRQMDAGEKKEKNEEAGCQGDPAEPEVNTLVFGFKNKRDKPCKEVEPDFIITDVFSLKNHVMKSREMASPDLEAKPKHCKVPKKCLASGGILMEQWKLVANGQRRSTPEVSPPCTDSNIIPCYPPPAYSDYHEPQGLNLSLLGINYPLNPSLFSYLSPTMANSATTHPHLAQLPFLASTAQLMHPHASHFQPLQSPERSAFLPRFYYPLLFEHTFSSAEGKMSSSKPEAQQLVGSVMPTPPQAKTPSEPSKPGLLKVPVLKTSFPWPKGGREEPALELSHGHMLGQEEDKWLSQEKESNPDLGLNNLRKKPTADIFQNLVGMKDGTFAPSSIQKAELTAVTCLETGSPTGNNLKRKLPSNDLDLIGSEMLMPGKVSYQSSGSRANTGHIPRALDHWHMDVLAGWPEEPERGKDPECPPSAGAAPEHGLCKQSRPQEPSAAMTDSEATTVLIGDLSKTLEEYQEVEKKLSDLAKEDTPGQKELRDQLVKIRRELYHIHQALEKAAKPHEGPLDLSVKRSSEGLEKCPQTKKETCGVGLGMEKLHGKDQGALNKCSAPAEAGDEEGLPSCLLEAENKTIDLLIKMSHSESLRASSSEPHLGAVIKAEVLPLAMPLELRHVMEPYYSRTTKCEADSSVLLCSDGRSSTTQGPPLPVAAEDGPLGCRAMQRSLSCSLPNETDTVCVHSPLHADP

B1: GST-VHH-54 (VHH)
VHH: QVQLVESGGGLVQPGGSLTLSCAASGFTFSKYPMTWVRQAPGKGLEWVSTITSGGTTTYADSVKGRFTISRDNAKDTLYLQMNSLKPEDTAIYYCAELGLPPGGQGTQVTVSS
notes: VHH from a non-immunised alpaca library; VHH gene of phage-54 fused with the GST gene in pGEX-4T-1; also called VVH-54; VVH54; source: expressed from pGEX-4T-1 and purified
binds: [1] | [2] | [3] | Calreticulin | [4] | [5] | [6] | [7] | [8] | [9]

B2: GST-VHH-74 (VHH)
VHH: QVQLVESGGGLVQEGGSLRLSCVVSGSRDSINAMGWYRQAPGKQRELVATVAGVGSTNYAASVKGRFSISMDNAKNTAYLQMNSLKPEDTAVYYCVADLRGSDRWLWAQGTQVTVSA
notes: VHH from a non-immunised alpaca library; VHH gene of phage-74 fused with the GST gene in pGEX-4T-1; also called VVH-74; source: expressed from pGEX-4T-1 and purified
binds: [10] | [11] | [12] | [13] | [14] | [15] | [16] | [17]
